Results reported in patent publication US20110263454A1, “Methods of Identifying Functional Characteristics of Promoters, Transcription Modifying Proteins and Transcription Modulating Agents” (Salk Institute for Biological Studies, priority 2008, published 2011).

What was measured:
hCYP3A4 promoter = assay: NHR-promoter luciferase screen, hCYP3A4 promoter; assay type: cell-based, human; details: for Luc. act., normalized to lacZ / Normalized Luc. act., normalized to control: CYP3A4 promoter, HR/ligand component; for hCYP3A4 promoter reporter activity: transcription factor +/- ligand, control = 1.00
How it was run: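 CV-1 cells co-transfected with NHR homodimer or NHR/RXR heterodimer (pcDNA3.1, C-terminal V5H6 tag), promoter-luciferase construct and LacZ transfection control. Orphan receptors screened without ligand. Luciferase normalized to LacZ and to no-NHR/no-ligand control.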

mCAR promoter = assay: NHR-promoter luciferase screen, mCAR promoter; assay type: cell-based, mouse; details: for luciferase activity normalized to lacZ activity and to a control, mCAR: mCAR promoter-luciferase, CV-1 cells, NHR +/- ligand, control = 1.00; for Luc. act., normalized to lacZ / Normalized Luc. act., normalized to control: mCAR promoter, HR/ligand component
How it was run: (§1)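 CV-1 cells were co-transfected with 50 ng NHR (homodimer or NHR/RXR heterodimer), 100 ng promoter-luciferase construct and 50 ng LacZ. Luciferase was normalized to LacZ and to a no-NHR/no-ligand control.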

mPOMC promoter = assay: NHR-promoter luciferase screen, mPOMC promoter; assay type: cell-based, mouse; details: for Results of assays of transcription factor (+/- ligand) with mPOMC: Table 6d, luciferase activity relative to control (control = 1.00); for Luc. act., normalized to lacZ / Normalized Luc. act., normalized to control: mPOMC promoter, HR component with or without ligand; for Normalized Luc. act., normalized to control: relative to control
How it was run: as §1

hIRF7 promoter = assay: NHR-promoter luciferase screen, hIRF7 promoter; assay type: cell-based, human; details: for Normalized Luc. act., normalized to control / Luc. act., normalized to lacZ: IRF7 promoter reporter; for Normalized Luc. act., normalized to control: HR without or with its ligand, relative to control; for Luc. act., normalized to lacZ: hormone receptor (HR) without or with its ligand; for hIRF7 promoter reporter activity: transcription factor +/- ligand, control = 1.00
How it was run: as §1

mLeptin promoter = assay: NHR-promoter luciferase screen, mLeptin promoter; assay type: cell-based, mouse; details: for Luc. act., normalized to lacZ / Normalized Luc. act., normalized to control: Table 7, mLeptin; for Results of assays of transcription factor (+/- ligand) with mLeptin: Table 6d, luciferase activity relative to control (control = 1.00)
How it was run: as §1

mUCP2 promoter = assay: NHR-promoter luciferase screen, mUCP2 promoter; assay type: cell-based, mouse; details: for Luc. act., normalized to lacZ / Normalized Luc. act., normalized to control: mUCP2 promoter reporter, co-transfected HR, with or without its ligand; for Normalized Luc. act., normalized to control: relative to control; for luciferase activity normalized to lacZ activity and to a control, mUCP2: mUCP2 promoter-luciferase, CV-1 cells, NHR +/- ligand, control = 1.00
How it was run: as §1

Row | Molecule | Luc. act., normalized to lacZ (hCYP3A4 promoter) | Normalized Luc. act., normalized to control (hCYP3A4 promoter) | hCYP3A4 promoter reporter activity (hCYP3A4 promoter) | luciferase activity normalized to lacZ activity and to a control, mCAR (mCAR promoter) | Luc. act., normalized to lacZ (mCAR promoter) | Normalized Luc. act., normalized to control (mCAR promoter) | Results of assays of transcription factor (+/- ligand) with mPOMC (mPOMC promoter) | Luc. act., normalized to lacZ (mPOMC promoter) | Normalized Luc. act., normalized to control (mPOMC promoter) | Normalized Luc. act., normalized to control (hIRF7 promoter) | Luc. act., normalized to lacZ (hIRF7 promoter) | hIRF7 promoter reporter activity (hIRF7 promoter) | Luc. act., normalized to lacZ (mLeptin promoter) | Normalized Luc. act., normalized to control (mLeptin promoter) | Results of assays of transcription factor (+/- ligand) with mLeptin (mLeptin promoter) | Luc. act., normalized to lacZ (mUCP2 promoter) | Normalized Luc. act., normalized to control (mUCP2 promoter) | luciferase activity normalized to lacZ activity and to a control, mUCP2 (mUCP2 promoter)
1 | NR4a2: NR4a2 (NR4A2; NURR1), nuclear hormone receptor cDNA driver (protein, UniProt P43354 1-598, looked up) Nuclear receptor subfamily 4 …: MPCVQAQYGSSPQGASPASQSYSYHSSGEYSSDFLTPEFVKFSMDLTNTEITATTSLPSFSTFMDNYSTGYDVKPPCLYQMPLSGQQSSIKVEDIQMHNYQQHSHLPPQSEEMMPHSGSVYYKPSSPPTPTTPGFQVQHSPMWDDPGSLHNFHQNYVATTHMIEQRKTPVSRLSLFSFKQSPPGTPVSSCQMRFDGPLHVPMNPEPAGSHHVVDGQTFAVPNPIRKPASMGFPGLQIGHASQLLDTQVPSPPSRGSPSNEGLCAVCGDNAACQHYGVRTCEGCKGFFKRTVQKNAKYVCLANKNCPVDKRRRNRCQYCRFQKCLAVGMVKEVVRTDSLKGRRGRLPSKPKSPQEPSPPSPPVSLISALVRAHVDSNPAMTSLDYSRFQANPDYQMSGDDTQHIQQFYDLLTGSMEIIRGWAEKIPGFADLPKADQDLLFESAFLELFVLRLAYRSNPVEGKLIFCNGVVLHRLQCVRGFGEWIDSIVEFSSNLQNMNIDISAFSCIAALAMVTERHGLKEPKRVEELQNKIVNCLKDHVTFNNGGLNRPNYLSKLLGKLPELRTLCTQGLQRIFYLKLEDLVPPPAIIDKLFLDTLPF | 3.5 | 0.8 | 0.79 | 0.57 | 21.74 | 0.6 | 1.05 | 72.2 | 1.0 | 0.9 | 23.2 | 0.88 | 2.1 | 0.7 | 0.71 | 129.8 | 1.2 | 1.18
2 | hMR: Mineralocorticoid Receptor (NR3C2, MR), cDNA driver (protein, UniProt P08235 1-984, looked up) Mineralocorticoid receptor: METKGYHSLPEGLDMERRWGQVSQAVERSSLGPTERTDENNYMEIVNVSCVSGAIPNNSTQGSSKEKQELLPCLQQDNNRPGILTSDIKTELESKELSATVAESMGLYMDSVRDADYSYEQQNQQGSMSPAKIYQNVEQLVKFYKGNGHRPSTLSCVNTPLRSFMSDSGSSVNGGVMRAVVKSPIMCHEKSPSVCSPLNMTSSVCSPAGINSVSSTTASFGSFPVHSPITQGTPLTCSPNVENRGSRSHSPAHASNVGSPLSSPLSSMKSSISSPPSHCSVKSPVSSPNNVTLRSSVSSPANINNSRCSVSSPSNTNNRSTLSSPAASTVGSICSPVNNAFSYTASGTSAGSSTLRDVVPSPDTQEKGAQEVPFPKTEEVESAISNGVTGQLNIVQYIKPEPDGAFSSSCLGGNSKINSDSSFSVPIKQESTKHSCSGTSFKGNPTVNPFPFMDGSYFSFMDDKDYYSLSGILGPPVPGFDGNCEGSGFPVGIKQEPDDGSYYPEASIPSSAIVGVNSGGQSFHYRIGAQGTISLSRSARDQSFQHLSSFPPVNTLVESWKSHGDLSSRRSDGYPVLEYIPENVSSSTLRSVSTGSSRPSKICLVCGDEASGCHYGVVTCGSCKVFFKRAVEGQHNYLCAGRNDCIIDKIRRKNCPACRLQKCLQAGMNLGARKSKKLGKLKGIHEEQPQQQQPPPPPPPPQSPEEGTTYIAPAKEPSVNTALVPQLSTISRALTPSPVMVLENIEPEIVYAGYDSSKPDTAENLLSTLNRLAGKQMIQVVKWAKVLPGFKNLPLEDQITLIQYSWMCLSSFALSWRSYKHTNSQFLYFAPDLVFNEEKMHQSAMYELCQGMHQISLQFVRLQLTFEEYTIMKVLLLLSTIPKDGLKSQAAFEEMRTNYIKELRKMVTKCPNNSGQSWQRFYQLTKLLDSMHDLVSDLLEFCFYTFRESHALKVEFPAMLVEIISDQLPKVESGNAKPLYFHRK | 2.6 | 0.6 | 0.58 | 0.77 | 29.38 | 0.8 | 0.73 | 50.3 | 0.7 | 0.8 | 21.1 | 0.80 | 1.7 | 0.6 | 0.57 | 58.8 | 0.5 | 0.54
3 | NR4a3: NR4a3 (NR4A3; NOR1), nuclear hormone receptor cDNA driver (protein, UniProt Q92570 1-626, looked up) Nuclear receptor subfamily 4 …: MPCVQAQYSPSPPGSSYAAQTYSSEYTTEIMNPDYTKLTMDLGSTEITATATTSLPSISTFVEGYSSNYELKPSCVYQMQRPLIKVEEGRAPSYHHHHHHHHHHHHHHQQQHQQPSIPPASSPEDEVLPSTSMYFKQSPPSTPTTPAFPPQAGALWDEALPSAPGCIAPGPLLDPPMKAVPTVAGARFPLFHFKPSPPHPPAPSPAGGHHLGYDPTAAAALSLPLGAAAAAGSQAAALESHPYGLPLAKRAAPLAFPPLGLTPSPTASSLLGESPSLPSPPSRSSSSGEGTCAVCGDNAACQHYGVRTCEGCKGFFKRTVQKNAKYVCLANKNCPVDKRRRNRCQYCRFQKCLSVGMVKEVVRTDSLKGRRGRLPSKPKSPLQQEPSQPSPPSPPICMMNALVRALTDSTPRDLDYSRYCPTDQAAAGTDAEHVQQFYNLLTASIDVSRSWAEKIPGFTDLPKEDQTLLIESAFLELFVLRLSIRSNTAEDKFVFCNGLVLHRLQCLRGFGEWLDSIKDFSLNLQSLNLDIQALACLSALSMITERHGLKEPKRVEELCNKITSSLKDHQSKGQALEPTESKVLGALVELRKICTLGLQRIFYLKLEDLVSPPSIIDKLFLDTLPF | 4.2 | 0.9 | 0.93 | 0.57 | 21.58 | 0.6 | 0.87 | 59.7 | 0.9 | 0.9 | 24.9 | 0.95 | 1.8 | 0.6 | 0.62 | 150.1 | 1.4 | 1.37
4 | PR: Progesterone Receptor (NR3C3), cDNA driver (protein, UniProt P06401 1-933, looked up) Progesterone receptor: MTELKAKGPRAPHVAGGPPSPEVGSPLLCRPAAGPFPGSQTSDTLPEVSAIPISLDGLLFPRPCQGQDPSDEKTQDQQSLSDVEGAYSRAEATRGAGGSSSSPPEKDSGLLDSVLDTLLAPSGPGQSQPSPPACEVTSSWCLFGPELPEDPPAAPATQRVLSPLMSRSGCKVGDSSGTAAAHKVLPRGLSPARQLLLPASESPHWSGAPVKPSPQAAAVEVEEEDGSESEESAGPLLKGKPRALGGAAAGGGAAAVPPGAAAGGVALVPKEDSRFSAPRVALVEQDAPMAPGRSPLATTVMDFIHVPILPLNHALLAARTRQLLEDESYDGGAGAASAFAPPRSSPCASSTPVAVGDFPDCAYPPDAEPKDDAYPLYSDFQPPALKIKEEEEGAEASARSPRSYLVAGANPAAFPDFPLGPPPPLPPRATPSRPGEAAVTAAPASASVSSASSSGSTLECILYKAEGAPPQQGPFAPPPCKAPGASGCLLPRDGLPSTSASAAAAGAAPALYPALGLNGLPQLGYQAAVLKEGLPQVYPPYLNYLRPDSEASQSPQYSFESLPQKICLICGDEASGCHYGVLTCGSCKVFFKRAMEGQHNYLCAGRNDCIVDKIRRKNCPACRLRKCCQAGMVLGGRKFKKFNKVRVVRALDAVALPQPVGVPNESQALSQRFTFSPGQDIQLIPPLINLLMSIEPDVIYAGHDNTKPDTSSSLLTSLNQLGERQLLSVVKWSKSLPGFRNLHIDDQITLIQYSWMSLMVFGLGWRSYKHVSGQMLYFAPDLILNEQRMKESSFYSLCLTMWQIPQEFVKLQVSQEEFLCMKVLLLLNTIPLEGLRSQTQFEEMRSSYIRELIKAIGLRQKGVVSSSQRFYQLTKLLDNLHDLVKQLHLYCLNTFIQSRALSVEFPEMMSEVIAAQLPKILAGMVKPLLFHKK | 6.5 | 1.5 | 1.47 | 0.98 | 37.53 | 1.0 | 1.10 | 75.8 | 1.1 | 1.3 | 33.0 | 1.25 | 2.2 | 0.8 | 0.76 | 178.8 | 1.6 | 1.63
